Results taken from paper doi:10.1101/2023.12.10.570962 (bioRxiv, 2023).

Target: the molecule itself
Test: SEC-MALS

B1: Lcl C-terminal domain (Lcl-CTD), residues 252 to 401 (domain or fragment)
chain: MAHHHHHHVDDDDKMETGQVLAKSNDLDFNTMWVDPANSGIRRQLGDKALGGTVIYVNALGTHGLVVANSDQVNSNTWWDAQDSITNPAHFDNEGKLYSDWRLPTRFELNLIYMMRNELGNFLAGNYWSSIEKSSANSWVFNSKTGEIKDIAKSKTAAVRAVRAF
Q: Which “stoichiometry N” value does the source give for B1 here?
A: 3
